From patent US20150266967A1

Target: recombinant Fcγ-receptor 3a protein, high affinity V158 allotype (UniProt P08637)
Assay: surface plasmon resonance, KD from ka and kd

recombinant Fcγ-receptor 3a protein, high affinity V158 allotype, sequence (P08637 17-208 F176V): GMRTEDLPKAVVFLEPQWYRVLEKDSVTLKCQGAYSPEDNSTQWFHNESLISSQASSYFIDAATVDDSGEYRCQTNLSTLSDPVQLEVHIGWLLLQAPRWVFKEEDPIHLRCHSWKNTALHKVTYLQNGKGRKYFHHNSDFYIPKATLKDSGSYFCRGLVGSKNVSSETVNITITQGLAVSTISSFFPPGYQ

## non Fc-engineered IgG1 reference antibody
  Kd: 379 nM
